Test results published in patent publication US20160251450A1.
One block for each substance: values may come before it.

Experiments:
[1] = target: Anti-OVA IgG (rabbit-derived); assay: ELISA: OVA coated, rabbit Anti-OVA IgG, then wild-type pG sample (negative control), then HRP-labeled anti-guinea pig IgG, TMB. The signal needs a second free IgG-binding site
[2] = target: Anti-OVA IgG (rabbit-derived); assay: ELISA: OVA coated, rabbit Anti-OVA IgG, HRP-labeled anti-rabbit IgG. Signal against the no-antigen control
[3] = target: Anti-OVA IgG (rabbit-derived); assay: ELISA: OVA coated, rabbit Anti-OVA IgG, then HRP-labeled anti-rabbit IgG instead of the hybrid, TMB (sample No. 8)
[4] = target: Anti-OVA IgG (rabbit-derived); assay: ELISA: OVA coated, rabbit Anti-OVA IgG, then K-tag pG alone (negative control), then HRP-labeled anti-guinea pig IgG, TMB. The signal needs a second free IgG-binding site

change in the absorbance at 370 nm (dO.D./min) [1]: < 0.03 dO.D./min
Substance: wild-type pG having no introduced K-tag (thrombin-treated K-tag pG)

S/N ratio (No. 8 against No. 4 without antigen) [2]: 4.6
change in the absorbance at 370 nm (dO.D./min) [3]: 0.18 dO.D./min
Substance: commercially available HRP-labeled anti-rabbit IgG (antibody)

change in the absorbance at 370 nm (dO.D./min) [4]: < 0.03 dO.D./min
Substance: recombinant protein G with K-tag (K-tag pG), alone, not cross-linked to polymer
